The target of data set [1] is soybean agglutinin (SBA), P05046.
The target of data set [2] is T1, soybean Bowman-Birk Inhibitor, P01055.
T1 chain: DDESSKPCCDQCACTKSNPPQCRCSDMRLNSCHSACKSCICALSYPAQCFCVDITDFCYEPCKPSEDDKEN

For data set [3], the target named is T2, Soybean Kunitz Trypsin Inhibitor, P01070.
T2 chain: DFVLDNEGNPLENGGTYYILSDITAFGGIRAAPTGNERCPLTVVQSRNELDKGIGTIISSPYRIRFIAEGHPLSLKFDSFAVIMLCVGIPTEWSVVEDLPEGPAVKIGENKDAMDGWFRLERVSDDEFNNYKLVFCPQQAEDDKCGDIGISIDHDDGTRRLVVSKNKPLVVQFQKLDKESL

Sequence of soybean agglutinin (SBA), P05046 (P05046 33-285): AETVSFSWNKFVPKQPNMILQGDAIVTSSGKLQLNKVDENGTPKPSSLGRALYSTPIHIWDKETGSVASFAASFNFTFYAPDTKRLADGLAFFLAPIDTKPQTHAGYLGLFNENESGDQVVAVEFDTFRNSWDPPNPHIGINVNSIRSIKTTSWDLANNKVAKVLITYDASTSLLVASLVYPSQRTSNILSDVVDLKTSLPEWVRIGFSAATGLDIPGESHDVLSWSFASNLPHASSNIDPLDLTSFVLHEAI

B1: protease derived from Nocardiopsis sp. NRRL 18262 (protein)
chain: ADIIGGLAYTMGGRCSVGFAATNAAGQPGFVTAGHCGRVGTQVTIGNGRGVFEQSVFPGNDAAFVRGTSNFTLTNLVSRYNTGGYATVAGHNQAPIGSSVCRSGSTTGWHCGTIQARGQSVSYPEGTVTNMTRTTVCAEPGDSGGSYISGTQAQGVTSGGSGNCRTGGTTFYQEVTPMVNSWGVRLRT
Turning to B1, the figures for the % of anti-nutritional factor degraded in data set [1], in data set [2] and in data set [3] were 75%, 25% and 100%, respectively.

The values are drawn from patent US20040161448.
